# Assay results published in patent US20210172946A1.
# “And” between values parts separate entries of the source, which are not always exact repeats. Equal entries are not always repeated.
# Key:
# [1] = molecular target: biotinylated antigen (biotinylated 16-branched citrullinated peptide); experiment: magnetic particle chemiluminescence immunoassay; antibody at 200 RU/ml; kit stored at 4 C for 7 days
# [2] = molecular target: biotinylated antigen (biotinylated 16-branched citrullinated peptide); experiment: magnetic particle chemiluminescence immunoassay; antibody at 10 RU/ml; kit stored at 4 C for 7 days; mean of two
# [3] = molecular target: biotinylated antigen (biotinylated 16-branched citrullinated peptide); experiment: magnetic particle chemiluminescence immunoassay; antibody at 200 RU/ml; kit stored at 37 C for 7 days
# [4] = molecular target: biotinylated antigen (biotinylated 16-branched citrullinated peptide); experiment: magnetic particle chemiluminescence immunoassay; antibody at 80 RU/ml; kit stored at 37 C for 7 days
# [5] = molecular target: biotinylated antigen (biotinylated 16-branched citrullinated peptide); experiment: magnetic particle chemiluminescence immunoassay; antibody at 200 RU/ml; kit stored at 37 C for 7 days; mean of two
# [6] = molecular target: biotinylated antigen (biotinylated 16-branched citrullinated peptide); experiment: magnetic particle chemiluminescence immunoassay, antigen on streptavidin particles, AP anti-human IgG detection; antibody at 10 RU/ml; kit stored at 4 C for 7 days
# [7] = molecular target: biotinylated antigen (biotinylated 16-branched citrullinated peptide); experiment: magnetic particle chemiluminescence immunoassay; antibody at 80 RU/ml; kit stored at 37 C for 7 days; mean of two
# [8] = molecular target: biotinylated antigen (biotinylated 16-branched citrullinated peptide); experiment: magnetic particle chemiluminescence immunoassay; antibody at 10 RU/ml; kit stored at 4 C for 7 days
# [9] = molecular target: biotinylated antigen (biotinylated 16-branched citrullinated peptide); experiment: magnetic particle chemiluminescence immunoassay; antibody at 80 RU/ml; kit stored at 4 C for 7 days
# [10] = molecular target: biotinylated antigen (biotinylated 16-branched citrullinated peptide); experiment: magnetic particle chemiluminescence immunoassay; antibody at 10 RU/ml; kit stored at 37 C for 7 days
# [11] = molecular target: biotinylated antigen (biotinylated 16-branched citrullinated peptide); experiment: magnetic particle chemiluminescence immunoassay; antibody at 80 RU/ml; kit stored at 4 C for 7 days; mean of two
# [12] = molecular target: biotinylated antigen (biotinylated 16-branched citrullinated peptide); experiment: magnetic particle chemiluminescence immunoassay; antibody at 200 RU/ml; kit stored at 4 C for 7 days; mean of two
# [13] = molecular target: biotinylated antigen (biotinylated 16-branched citrullinated peptide); experiment: magnetic particle chemiluminescence immunoassay; antibody at 10 RU/ml; kit stored at 37 C for 7 days; mean of two
substance,measurement,setting,value
anti-citrullinated peptide antibody (quality control material / calibrator of the kit),RLU,[1],2.38e+06 RLU and 2.42e+06 RLU
same,RLU (AVER),[2],129000 RLU
same,RLU,[3],2.32e+06 RLU and 2.44e+06 RLU
same,RLU,[4],886000 RLU and 917000 RLU
same,RLU (AVER),[5],2.38e+06 RLU
same,RLU,[6],125000 RLU
same,RLU (AVER),[7],902000 RLU
same,RLU,[8],132000 RLU
same,RLU,[9],846000 RLU and 932000 RLU
same,RLU,[10],124000 RLU
same,RLU (AVER),[11],889000 RLU
same,RLU (AVER),[12],2.4e+06 RLU
same,RLU (AVER),[13],124000 RLU
